Assay results as given in the DeepSol protein solubility set.

assay: soluble on expression in E. coli; label from the status in PepcDB or PDB records

Row | Sequence | soluble on expression in E. coli
1 | MSLSGNYLPRNTLVESLGHAMLKLSGWKIEGQLPALDKFVVIGAHHTSNWDFVAFLAAKFVLRLNARWFGKHTLFNGPLGGLMRRWGGIPIQRHLKLNTVDQAIQAFREHREFMLIIAPEGTRKKVDRWRMGFYHIARGAGVPVVPAALDYENRRIVIGEPFWPTGNEDADLCSLIGFYRPFIPKKPHYAFLGDEGHHHHHH | soluble
2 | MSLSNIHHLERSLRKLRLTRVGAEWHALEKRALAEGWTPSRYLLTLCNEELLWRESEKLRRYKKEARLPVAKTLSEYDFSQVPELNGAQFRQLCETTDWVDAGENVLLFGASGLGKSHLAAAIVDGVVGQGYRARFYSAGELLQELRKARAQLKLNELLLKLDRYRVIVVDDLGYVKRDSAETGVLFELIAHRYERGSLVITSNHPFSMWGSIFVDETMAVAAADRLIHHGYMFELKGESYRKKTAKAVTSATEGHHHHHH | soluble
3 | ISEFGSSRMLTTLIYRSQVHPDRPPVDLDALVHRASSKNLPLGITGILLFNGLQFFQVLEGTEEALESLFSEIQSDPRHRDVVELMRDYSAYRRFHGTGMRILDLRLFETDGALEEILRFSTFGVTEPVNDRMFRLLSAFIADGGRYCLPEPLQPSRWMMMPASGTAAPQHLPGQPCQFALQAIVEPAKKRVSSFEALIRSPTGGSPVEMFAAIAAEDRYRFDLESKAYAFALAGQLPLGKHQLAINLLPGSLYHHPDAVGWLMDSLLAAGLRPDQVLIEVTETEVITCFDQFRKVLKALRVAGMKLAIDDFGAGYSGLSLLTRFQPDKIKVDAELVRDIHISGTKQAIVASVVRCCEDLGITVVAEGVETLEEWCWLQSVGIRLFQGFLFSRPCLNGIGEICWPVARQAMDL | soluble
4 | MDIAVQLVDSGGGTLQAGKSLRLSCAISGLAFDGGAMGSEHRLTAGAMGWFRQAPGKDREFVAAISPRTDETYYAESLEGRFSVSRDAAATMVFLQADNVRLDDTASYYCAADEDVTPRVMGVIPHADHWGQGTLVTVSSAAALEHHHHHH | soluble
5 | MDLFPVLKELAQKTPSKILLIVLDGVGGLPLEPGGPTELEAAKTPNLDRLAEESALGLLTPVYPGLAPGSGPGHLALFGYDPFRYVVGRGALSALGLGADFREGDVALRGNFATLDPEGKVVDRRAGRPPTEENQRVVAKLKEAIPRIEDVEVHFYTESEHRFLVVLRGEGLGDAVTDTDPQKTGLPPLKAKALDEASERTARLVNLLSERIREVLKDEPRMNGALFRGASKKPSFPRMQEVYKLTPAAIASYPMYKGLASLVGMEVLPVEGEGDALEGKLKALKENWGRYDFFYFHVKKTDAMGEDGNFHGKVEKVELFDALLPEILALGPDVLAITGDHSTPALLKAHSWHPVPLLLKAPYLRADEARRFTEREAQRGSLGHLRGMELMPLLLAHAGKLLKYGALEHHHHHH | not soluble
6 | EKPAMEYHWEEVFPELDSKNPMDRREMEQRREYLREKAKEAAAYAERPSSVRLASASLGTQPQEQPKPATPFQSQLTGILPEEQIQRLSEGIDKLAEAGEQLARIGRTAAAMTESYEQMQADQEGLRLNSQSYIQQMESLSRNISGLNTIYEIQLKGISSQIDTIDRINRGLAHIRDMYDNSVIDSSSFRNENERMARQLTQLNEVYARLLQALTTNVGLPGMPGNFGASNPSSSGSSPL | not soluble
7 | VDYSRTETLQFEDDEYYYYVKAVPKVGVTLPEKQVKHITEPHEEQPKEAKAAVNLKPEPMVQETVAIDTSQIQEADLEKNVDELLLTQSLNEELRQNQNEPEDDLSLTKSLGDLWTKKPGSGE | not soluble
8 | IYGYVEKATLIDQNLTLSAKLDTGAKSASLHAVNITEIEKKGIPYLRFTVPTKTGDYSFEGEYVGKVKIKVRSSETNPGLLRTTPIKRPVVLLNIKLGDKVRTIKVNLTNRKRFLYPLLLGRDAIIDFNGAVDPALTFTTKSK | soluble
9 | MFRLLFVSPRIAPNTGNAIRTCAATGCELHLVEPLGFDLSEPKLRRAGLDYHDLASVTVHASLAHAWEALSPARVFAFTAQATTLFTNVGYRAGDVLMFGPEPTGLDEATLADTHITGQVRIPMLAGRRSLNLSNAAAVAVYEAWRQHGFAGAV | not soluble
10 | MTLYEYDGSHVRKRVFQNTSWIFVTGDRYDIETLYDQLDSTRLKYEYSTMPDIYGYQDGIKIWVRPSHARMVGEIIFSNIGYGRRYRVYNADIDPVLRFMASNGLSFFEMRSVYDPDPDLNVAMVDCSHGKCIVDGEAMGDGRIYDRLMDSHVIVYEGTEQFYRKLMALGIRARYYPGKSFTSYGQISYRDSYLDIADRIAINSRSFFYAESGLSGIYEVSRISHLPPLYVSIVTPGTAVSSMELAEAVKKGMLVPFKKDDHENPKTKWEIMAKDRGGLIFQPLPGLYTDVYEIDFSSMYPSIIVRYDLTPGRISFLPEALEGLLSRRLIYKKMDGESVVYHSRNVALKWLLLTSFGYTGYKNAKFGKIEVHERITELGRKALAEAIAVAHENGFEMIHGIVDSLWIRGSGSIERVVSEISRRTRIDIVVSGHYHWIAFLPERDGTGSPSRYIGLDTSGKYKIRGLMIRRSDVPDLCKAFQMDALRVLSSCTDTRCILEKRREIMDLENYYLRNIRHFPRSYFMVSRKITRRPDEYHVKNLTRSALDLCRDAEELSPGQMISYYVVDEKRKIVDTDGENGIDYGYYRRCLTRALEEINFLFGKNCNIRRLEDFQSFQ | not soluble
11 | MARRISEPAREIDIIHETDVLVVGSGPGGLPAALAAARAGAEVTLVERFGCFGGNLTVVGVEGMHWYRHEQTIESNGIAREFEEKAKEMGAAVPESQSLSHEIDSEGFKLVADRMVLDEPNIRPMLHRFFVAPLMEGDTIIGIVTESKSGREAILARRVIDATGDADVVTRAGAPVYKTPAEQMMAASVMFHLAGVDKQRFMDGIKADPQTYRDWGGGGEWNIETSGKEDDMFSPFLKKPFQQAIRDGLIPPHLNTIAGTWGAVHDTGELTYMNLIHLDGCDGTDPDSLTTYEIEGRRQTMLAIEALRRYTPGCENIRLRNFGMSIGIRDTRKVDCLYNMTETDVREQGRFEDSIGIFPEFIDGYGILILPTTGRYFQMPYRNLLPRGVKNLLVAGRITGGDRISHAATRNMACCAVTGQGAGIAAALSVKSNRPLDEIDPLLIQKELERQGGRHHLEHHHHHH | not soluble
12 | MDVDLAAPMSESEKLLYRSNLLGSDKRITNYGGGNTSAKVIETDPLTGEPAEVLWVKGSGGDVGSIRMDGFATLYMDKLNALRGIYRGGEHEDEMVAFLRHCTFNLNPRAASIDTPLHAYVPAKHVDHMHPDAIIAIAAAKDSKKLTQEIFGDRIGWLPWKRPGYELGLWLSDFCEKNPDAKGVVLESHGLFTWADDARECYERTLEIIQTAMDWFAEQTAGKPAFGGALEHHHHHH | not soluble
13 | PDDVSVLAANGEKAKLSGGFFASEKALTLPDGVNQVVFRYAPYFNQGNDRLSVESDVIVARFDTANAELTIEVPKYRNMRDAEENIKDLDWKLVDGSGKAVAVDQDKLIKPGMQIGRDYVREIEDYNR | not soluble
14 | MGSDKIHHHHHHMSDANVSRLGQANLSGDAKALFLKVFSGEVLTAFQESCVTADKHLVRTITSGKSAQFPILGKISAQYHTPGAEIAGLSVPANEQIITIDDLLISHAFIASIDEAMNHYDVRGPYSTEMGRALSYTYDKHILQLGVLAARASAPVSTEAGGGSVTDSALLTDTTGEALVAALFAAAQKLDEKFIPADERYAYLTPAAYYMLAQNTKLMNSLWGGQGSYAKGELPQVAGISLVKAVHAPFGSNIATVANGGTALTAGTSDKYAVDATSTAALVMHKAAVGTVKLMDLAMESDYDIRRQGTLMVAKYAMGHGILRPAAAVELKTA | not soluble
15 | MKLKSLDFPTGYFYFDNAAINSDKVEVIAVGYRNTDKTIKIFIEDVIHFRVVDESYFIDTFMDLISEDADRALLHENGGQSFFELLDECYAEWILKESYFPLNREFFKYYIFMFEQTFIEIIGSSATYSIIEG | not soluble
16 | MKRHFETTRRIVIKVGTSSLVQTSGKINLSKIDHLAFVISSLMNRGMEVILVSSGAMGFGLDILKMDKRPQEISQQQAVSSVGQVAMMSLYSQIFSHYQTHVSQILLTRDVVVFPESLQNVTNSFESLLSMGILPIVNENDAVSVDEMDHKTKFGDNDRLSAVVAKITKADLLIMLSDIDGLFDKNPNIYDDAVLRSHVSEITDDIIKSAGGAGSKFGTGGMLSKIKSAQMVFDNNGQMILMNGANPRDILKVLDGHNIGTYFAQGKLEHHHHHH | not soluble
17 | MQYVAYAEGAKMASGAAKETSSNLFGIWDTWNSNPQMRKDHANELKKKSDEAYNNDMEELKKTRSAFDQEIAKRHAAADMQMSELVKSNNTELKTLQDQFNRDEASHGMAMKMMVREHAEKMKELRSEGREAQERAEREHRMKMSEAEEEHRKEKEIAQEKMDAAKREGSMKIALVEEEKQKIMKERSDELEKYTREMNEMAKNHQEERKKHNAIIGQKKMEMIGSKRDQLKIESEKILESMRNDINLLLAVEIKQNGSHLVEKLIDLFESVKTVKCLMDTVQTELTTIGDEVPEITPGQLSTFDDIKRHKTLFDNRVARFRKNVVTSSFTDAKLYEICMTTVSDFEKIMDKQDMKLVCHHLPKAVENQDFKKIKYYADMASKLNNQFSQEVQHLAAGFSNVSKTYAIDRSNQAAIQN | not soluble
18 | MTVDHRQWAREAIRIIEADFQRSADTHLIPLETPGLPGVELYFKDESSHPTGSLKHRLARSLFLYALCNGWLRPAAPVIEASSGSTAISEAYFARLLGLPFIAVMPASTSKEKIAQIAFYGGQSHLVEDPTQIYAESERLARESGGHFMDQFTYAERATDWRANNNIAESIFQQMRHEPYPTPTWLISSPGTGGTLATLGRYVRYRQHCTRVLCADAERSVFFDAYVSGDRGLTLDCGSRIEGIGRPRVEASFLPEVIDAMVKVPDAWSLAAMHYLARRLGRRVGGSSGTNLIGALVAARQMVAAGEKGSLVAILCDGGERYATTYYDPVWLARQGYALEPLVEALAACIERGVALPDGLLVAG | not soluble
19 | MNTRSSLSEEQREQLVGLCEQDLDFTTTASRIGGRHTLARSLYHCWLLHGRLCLVEKPTKKHYSFEIKKEVVDRFLAGETRMNLAKEFKLSSPQQVKDWVSKWHKRR | not soluble
20 | MGSDKIHHHHHHMKLKFLGGAEEVGRLGVKITDKDTSVIVDYGVIPEKPPQYPLPPEPVDAMFITHSHLDHIGAVPVYYHKGEPDLYATQMTLNTMKPLLRDALKVTNIEGYPAMFNEDDINSALANMRPARYFESIEVGNMVATPYPAGHIPGSTMWKFEDGISVTVTGDVNTIDTYLINGAKPIKTDVLIIESTYAGKNHESREDVRKRFRDSVKEVIDSGGKVIMPAFAVGRTQELIMTIADMGYDVAVDGMGNDISTIYLNTPGFLRSKKEFLRALSKVRIIKGRNMRENAIRSDIIISTSGMLDGGPVLGYIQKLLEDEKSAIFVTGYQVEGTNGRSLLETGTLTIAGVTVKPKMRVEFFDMSAHAGHDELVNFIKAIDPKKIVLCHGDHRENLLPDLEGYDVLLPYNGKEYEI | not soluble
21 | MGSDKIHHHHHHMSHKPSAEDKEKSKLTKEEWRDYTKTVWSIANTSHEDHPAVFPLEIPHRLTKLFSFYGETVLDPFAGTGTTARAAIPLGRRAICVDQNADYTEIIKKDCAKLRNGHGADFEPLVVVNGDSRKMDFVESDSVGLVVTSPPYWNKADYGDSKRNLGTIERYSDFIEGIRPVFEECYRILTPGRKLCVVTANVNQHTDHGLLTFPLATDFAVLLRQIGFVMINEIIWSKDATGGKWGSYGAQRPIFGSYPYPPNFLFKNVHEYILIFAKPPRTKTTGPKVQPYKKLVEGLTGGIMEPDSLPAYAQAFRQQ | not soluble
22 | MLKFENVTKSFKDGNRNIEAVKDTNFEINKGDIIALVGPSGSGKSTFLTMAGALQTPTSGHILINNQDITTMKQKALAKVRMSEIGFILQATNLVPFLTVKQQFTLLKKKNKNVMSNEDYQQLMSQLGLTSLLNKLPSEISGGQKQRVAIAKALYTNPSIILADEPTAALDTENAIEVIKILRDQAKQRKKACIIVTHDERLKAYCDRSYHMKDGVLNLENETVE | not soluble
